Reference: publication PMC2064081 (The Journal of Cell Biology, 2007)

Molecular target: F-actin (rabbit muscle actin, filaments) (rabbit, UniProt P68135 1-377)
Assay: co-sedimentation

B1: IRSp53/IMD (IRSp53/MIM domain of human IRSp53) (domain or fragment)
chain: MSLSRSEEMHRLTENVYKTIMEQFNPSLRNFIAMGKNYEKALAGVTYAAKGYFDALVKMGELASESQGSKELGDVLFQMAEVHRQIQNQLEEMLKSFHNELLTQLEQKVELDSRYLSAALKKYQTEQRSKGDALDKCQAELKKLRKKSQGSKNPQKYSDKELQYIDAISNKQGELENYVSDGYKTALTEERRRFCFLVEKQCAVAKNSAAYHSKGKELLAQKLPLWQQACADPSKIPERAVQLMQQVASN
binding result: binds
